Results on seven variants are retold here after IntAct's records for PubMed 30545121.

B1: Ribosome maturation protein SBDS (Homo sapiens), Q9Y3A5 (parent)
chain: MSIFTPTNQIRLTNVAVVRMKRAGKRFEIACYKNKVVGWRSGVEKDLDEVLQTHSVFVNVSKGQVAKKEDLISAFGTDDQTEICKQILTKGEVQVSDKERHTQLEQMFRDIATIVADKCVNPETKRPYTVILIERAMKDIHYSVKTNKSTKQQALEVIKQLKEKMKIERAHMRLRFILPVNEGKKLKEKLKPLIKVIESEDYGQQLEIVCLIDPGCFREIDELIKKETKGKGSLEVLNLKDVEEGDEKFE
partner: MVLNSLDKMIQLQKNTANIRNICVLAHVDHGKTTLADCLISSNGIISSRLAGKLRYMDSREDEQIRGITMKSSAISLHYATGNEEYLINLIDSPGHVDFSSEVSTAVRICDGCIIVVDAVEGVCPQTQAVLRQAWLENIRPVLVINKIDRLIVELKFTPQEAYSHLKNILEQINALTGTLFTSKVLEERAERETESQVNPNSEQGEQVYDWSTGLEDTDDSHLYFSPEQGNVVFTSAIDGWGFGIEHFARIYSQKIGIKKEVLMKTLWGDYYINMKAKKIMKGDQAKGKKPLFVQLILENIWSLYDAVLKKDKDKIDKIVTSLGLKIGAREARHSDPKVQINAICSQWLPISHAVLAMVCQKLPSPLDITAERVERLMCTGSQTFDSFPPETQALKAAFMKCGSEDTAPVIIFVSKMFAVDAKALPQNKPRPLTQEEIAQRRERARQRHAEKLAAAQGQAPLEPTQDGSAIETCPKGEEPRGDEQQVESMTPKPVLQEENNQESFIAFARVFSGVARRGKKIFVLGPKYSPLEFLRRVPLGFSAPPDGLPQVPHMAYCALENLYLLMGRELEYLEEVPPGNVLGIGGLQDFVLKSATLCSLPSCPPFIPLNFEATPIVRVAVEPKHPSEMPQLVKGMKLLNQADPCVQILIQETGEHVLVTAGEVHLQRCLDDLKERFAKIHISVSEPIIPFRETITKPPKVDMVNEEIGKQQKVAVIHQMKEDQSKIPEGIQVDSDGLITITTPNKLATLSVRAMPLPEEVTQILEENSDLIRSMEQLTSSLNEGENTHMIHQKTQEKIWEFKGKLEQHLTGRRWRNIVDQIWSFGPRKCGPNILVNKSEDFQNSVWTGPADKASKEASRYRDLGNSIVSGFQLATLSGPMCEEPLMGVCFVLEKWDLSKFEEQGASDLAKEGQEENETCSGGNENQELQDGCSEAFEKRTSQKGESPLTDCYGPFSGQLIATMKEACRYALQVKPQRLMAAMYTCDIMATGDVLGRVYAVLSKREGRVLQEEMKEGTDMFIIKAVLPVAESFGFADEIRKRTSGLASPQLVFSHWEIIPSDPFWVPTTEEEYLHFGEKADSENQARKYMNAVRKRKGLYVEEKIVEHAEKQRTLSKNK

Variants of B1 are the subject of this experiment. Particulars: with efl1_human EFL1, Q7Z2Z2.
As for S143L, the “effect of a mutation on the interaction” value is reported as “disrupting interaction strength”.
Take I212T: the “effect of a mutation on the interaction” value is “disrupting interaction strength”.
The result for K67E reads “decreasing interaction strength”.
The result for R19Q reads “decreasing interaction strength”; that for R126T, “decreasing interaction strength”.
R175W: the “effect of a mutation on the interaction” value was “decreasing interaction strength”.
The value for I167T was “decreasing interaction strength”.
